Measurements as given in patent publication US20160114017A1 (UNIVERSITY OF PITTSBURGH OF THE COMMONWEALTH SYSTEM OF …, published 2016).
Blank lines part the entries; values can stand above or below the binder they belong to.

Molecular target: T1, HLA-A2 on the cell surface (HLA-A2 transfected T2 cell line; SNB19 glioma cells) (human)
T1 construct: whole, on cells; Class I MHC on cells; also called HLA-A*0201
Experiment: T2 cell HLA-A2 stabilisation, flow cytometry, peptide 1 nM overnight
Experimental: The binding capability of these modified peptides was assessed using an HLA-A2 transfected T2 cell line. Aliquots of T2 cells were incubated with modified peptides or IL-13Rα2₃₄₅₋₃₅₃ at 1 nM overnight, and then examined for the surface expression levels of HLA-A2 on T2 cells by flow cytometry. Since stable binding of HLA-A2 with peptide epitopes further stabilizes the surface expression of HLA-A2 (Francini et al., 2002; Alves et al., 2003), quantitative expression levels of HLA-A2, which is indicated by Mean Fluorescence Intensity (MFI) in Table 1, correlate with the binding affinity of the peptide-epitopes that are co-incubated with the T2 cells.

Binding Index (MFI): 237 MFI
B1: Native IL-13Rα2345-353 peptide (peptide)
peptide: WLPFGFILI
notes: Synthetic peptide incubated with T2 cells at 1 nM overnight; also called IL-13Rα345-353; wild type IL-13Rα2345-353

Binding Index (MFI): 376 MFI
B2: IL-13Rα2-V9 peptide (I replaced with V at P9) (peptide)
peptide: WLPFGFILV
notes: Synthetic modified peptide; also called IL-13Rα2345-9V
